Source: paper PMC5951399

Molecular target: frataxin, mature form (FXN^81–210) (human) (UniProt Q16595)
Experiment: ITC

frataxin, mature form (FXN^81–210) (human), sequence (Q16595 81-210): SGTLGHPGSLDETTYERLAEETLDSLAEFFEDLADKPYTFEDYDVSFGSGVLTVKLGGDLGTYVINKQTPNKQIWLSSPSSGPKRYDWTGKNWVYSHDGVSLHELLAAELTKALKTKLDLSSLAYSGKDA
[NFS1]2:[ISD11]2:[Acp]2:[ISCU]2 complex, sequence (Q9H1K1 whole entry, looked up): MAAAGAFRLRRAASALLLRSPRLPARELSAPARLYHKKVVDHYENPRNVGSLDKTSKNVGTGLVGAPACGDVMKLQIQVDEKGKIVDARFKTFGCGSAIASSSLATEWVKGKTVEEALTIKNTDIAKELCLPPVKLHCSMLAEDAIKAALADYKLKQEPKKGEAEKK
[NFS1]2:[ISD11]2:[Acp]2:[ISCU]2 complex, sequence (P0A6A8 whole entry, looked up): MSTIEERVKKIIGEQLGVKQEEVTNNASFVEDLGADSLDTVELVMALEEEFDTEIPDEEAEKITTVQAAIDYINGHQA
[NFS1]2:[ISD11]2:[Acp]2:[ISCU]2 complex, sequence (Q9HD34 whole entry, looked up): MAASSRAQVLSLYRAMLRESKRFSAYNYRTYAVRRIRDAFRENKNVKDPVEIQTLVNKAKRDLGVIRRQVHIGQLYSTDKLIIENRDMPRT
cysteine desulfurase complex [NFS1]2:[ISD11]2:[Acp]2, sequence (P0A6A8 whole entry, looked up): as the sequence (P0A6A8 whole entry, looked up) above
cysteine desulfurase complex [NFS1]2:[ISD11]2:[Acp]2, sequence (Q9HD34 whole entry, looked up): as the sequence (Q9HD34 whole entry, looked up) above

## [NFS1]2:[ISD11]2:[Acp]2:[ISCU]2 complex (from UniProt Q9HD34 1-91; P0A6A8 1-78; Q9H1K1-1 35-167)
  Kd: 3 µM

## cysteine desulfurase complex [NFS1]2:[ISD11]2:[Acp]2 (from UniProt Q9HD34 1-91; P0A6A8 1-78)
  Kd: 26.2 µM
